Results on 21 sequences are retold here after the DeepSol protein solubility set.

This data set can be described thus: soluble on expression in E. coli; label from the status in PepcDB or PDB records.
With “MIQTKQIGLQEVLSAAIKRATDEKILVSFVKQIDWMDPLLFYAAGKRISFENRCYFADPAQHVIFAGIGSVFTIATASRKRFQTARDEWDKVKEKAFVQREKYEFGTGPLLFGGFSFDQEKEKTDLWKEFDDTTFSLPTFLLTVKNEKAWLTMNTFVSATDCAETLYNEIVSLEEKIFEESKCALEGSKLTVTSKVEVDPKGWMKAIEKVQDEMKQGNVQKVVLARELKVEMDHHIDSALVLEALRIGQPDCYVFSFDYKGACFLGATPERLIRKEDEKFTSMCLAGSTSHGQSIEESKRNSNALLHDEKNLAEHGYVVNMIRSVLNEHCEFVNIPESPGLLTTKNLIHLYTPVEAKGDASLLTMVEELHPTPALGGTPRLEAMKLIRDVELLDRGLYGAPIGWIDDEGNGEFAVALRCGLLNGEKASLFAGCGIVIDSVPQLEYEETSLKFRPMLGALEELMK”, the “soluble on expression in E. coli” value is recorded as “not soluble”.
With “MIRFIIPLMDCARLYGRPVQFKTERTDINSLMFGLPKLPSVDYFAEEEIAHLMTQEFNPLKEKDTDDTMALTMSRFSSYLQERMTKVSKRNTELNFRTFSDVMGMYNTTRDHSKLNCMSDKDNSVKEFSLSDKSNVSSETTNMMNQLQVNAHEYKSSMCERPIVASTSPIA”, the “soluble on expression in E. coli” value is listed as “not soluble”.
In the case of “MIRKHSATLHGHRTSISLEDAFWDELKIIAERRKVSFAALLAEIDDSRPADSNLSSSLRVYVLNWLKTR”, the “soluble on expression in E. coli” value was “not soluble”.
For “MIRNPKIYIIILNYNAYEDTLECVKSIGNIDYDNYELVLVDNSSTDDSYVKLKESLPSYNIIKSKENLGYANGNNIGIKYALENGADYICILNNDVVVEKDFLNKLVDKIIEKEDVGIVGSCICDYYRREIIQGMGAHINLYFAAARRYFKGKNYNEIEKKDIFVDYLEGACFLVKSEVFEKIGLIPENYFLFFEETEFCTRAINAGYKIMCIYESKVYHKGSATINKFGSLSYAYLNRNRVIFVRRNSKWYQKIIFAIYIFIEAFGRIVIRKEPLTLFKYILGGFKSNKESIDVIDVKSYVKLEHHHHHH”, the “soluble on expression in E. coli” value is given as “not soluble”.
Take “MIRQSVFLLAAIGATVFAQNDSFDLVDANNDGKLSEKELITFMRKRGRPDGQEYFQRFDLDRNGHLDISEFVPLVYEMSRRPVDMDYEFFKKMDLNDDGIVDKAEVEKIRKDNNDRIIDGILSIADTNRDGQLTYAEFKNHLSSGAKSLSPAEEQRNQALQLLSFIDANGDNKLDQLELYTFSQKTSTNKVTKSDVQQIFAMLDKNQDGYLTENELLQLAQQFSTIGNVRSTIPKV”: the “soluble on expression in E. coli” value is listed as “not soluble”.
On to “MISICLVNTYDKLKKHEIHLRSIARAAPLCYAFNFHLALLDFPFWRSEKEVAEEVANYTTIGEGGKYLLYLAESGKLHLIDKIPAHFGEVVATTSKPDPDKVVNPDTLAAFKSATFLIGLGRRGLPREMLKSAKYHLDVTRKGVSLETCSAIGAIAMLLAVKVVG”, for which the “soluble on expression in E. coli” value was “not soluble”.
On to “MISIDPQFIKNFSKKVKQFDKFSLFVHVNPDFDAFGSAFAFKTFLNTFFSEKKAYVMGSYNINADGRELFPFEQTDINDDFVKESLAIIFDTSNQERVLTQKHKLAKETVRIDHHPRTEKFADMEWIDSSFSATAEMIGYLILQMGYKLNDEIASYLYAGIITDTQRFWGPTTTPQTFALTAKLMETGFNRNKVHDAVYLKPLLEHKYFSYVLSKAKITKNGLAYALIKKGAYKHFGVVSPLPMVHALNNIKGVKIWTTVYFNESIKKWIGSIRSRNIPINNFAQMFNGGGHKYAAAFVLDEKNQFMKLVQIMDDFLAKQNENS”, for which the “soluble on expression in E. coli” value is given as “not soluble”.
With “MISLFSPCHLSAALLISALSIVPTNAAPSPVSSPFTVNATVLTGCVLGGGATDSSNFGSINFGNITSLATAINATSGLNAGTITIQCNGNPSVTLALNSGANMTGNISAGRHLLNSSTGEYLLYQIYQNSPRTLIWGDGSNGGATQVIATDGTLQQVILYAQLFASNTQPTAGVYLDTLLVTVTY”, the “soluble on expression in E. coli” value is “not soluble”.
In the case of “MITLHTNFGDIKIQLNFEKAPVTSANFEQYCREGFYDNTLFHRVIDGFMIQGGGMTSGLREKETRDPIRNEANNGLSNKVGTIAMARTMDPHSASSQFFINVNNNTFLDFRSESRDGWGYCVFGEVVEGMDIVNKIKGVSTGSYGMHQDVPLEEVVITGTTIEA”, the “soluble on expression in E. coli” value is “not soluble”.
Turning to “MIVHVVKRGETLWQLAQRYGVPLERIVAANELSDPNRLAVGQALVIPVPYRYHTVRTGETLWQIARQYGVAVEAIIQANRITNPSLLYPGTTLFIPARIHTVRSGETLAQIASFYGVTVQQLIEVNDITDPNRIVPGQRLIIPPAKPLIEVNAFTVDQGEKGAEQVREVGRHLTYAAPFAYTIRADGGLNPINDTAFIQAAYAARVVPMMTITNFTYQDPGSRLAQMILADVALQTRLLDNVIQVMRAKGYRTLNVDFENVYPSDRKRYNEFLQRAANRLHAEGYVLSTSLAPKISAEQKGLLYEAHDYPAHGRIADFVVLMTYEWGYRFGPPQAISPVNQIRRVLDYAVTAIPRSKIMMGFQIYARDWVLPHVQGQEAETFSPKEALERAVRYGASIQYDAAAASPFYRYTDEQGRQHEVWFEDARSALAKFELVKEYGLRGISYWVLGYPYPENWVLLEDNFRIRKRG”, the “soluble on expression in E. coli” value is reported as “not soluble”.
Then “MIVLALDVYEGERAIKIAKSVKDYISMIKVNWPLILGSGVDIIRRLKEETGVEIIADLKLADIPNTNRLIARKVFGAGADYVIVHTFVGRDSVMAVKELGEIIMVVEMSHPGALEFINPLTDRFIEVANEIEPFGVIAPGTRPERIGYIRDRLKEGIKILAPGIGAQGGKAKDAVKAGADYIIVGRAIYNAPNPREAAKAIYDEIRGV”, with “soluble”.
Turning to “MIVLNCIRYLGMTDINEIGRLTLYEYDLLMTGKALAAVDESHKAHKQAWINHQVTATKLVGGKKNKKEVPVYKKFKDFFDYEEEIRKITQEIDEGYDKKGMDLLLKANL”, the “soluble on expression in E. coli” value was “not soluble”.
Take “MIVSWRHKGLKAFFETGSSSGIRADHSKRLAHVLAVLNRARTPANVNMPGWRLHPLKGELEGFWSITINANWRIIFRFFDTDVELVDYLDYH”: the “soluble on expression in E. coli” value is recorded as “not soluble”.
Take “MIYGILSKNLGMPTPTFLVCPDVVKFENVGQIAVVNGMVYLGGSVGIDKSGTLHKGLEEQTRQTFDNIRKCLEYANSGLDYIVSLNIFLSTSLSDSEEARFNELYREVFCVPATRPCRCCVRAQLQEGLLVEVVNVVAAQK”: the “soluble on expression in E. coli” value is given as “soluble”.
Turning to “MIYLKSFERNIRLINMKVVYDDVRVLKDIIQALARLVDEAVLKFKQDSVELVALDRAHISLISVNLPREMFKEYDVNDEFKFGFNTQYLMKILKVAKRKEAIEIASESPDSVIINIIGSTNREFNVRNLEVSEQEIPEINLQFDISATISSDGFKSAISEVSTVTDNVVVEGHEDRILIKAEGESEVEVEFSKDTGGLQDLEFSKESKNSYSAEYLDDVLSLTKLSDYVKISFGNQKPLQLFFNMEGGGKVTYLLAPKV”, the “soluble on expression in E. coli” value is “soluble”.
Then “MKAAAKRISDGVYWTGVLDWDLRNYHGYTLQGTTYNAYLVCGDEGVALIDNSYPGTFDELMARVEDALQQVGMERVDYIIQNHVEKDHSGVLVELHRRFPEAPIYCTEVAVKGLLKHYPSLREAEFMTVKTGDVLDLGGKTLTFLETPLLHWPDSMFTLLDEDGILFSNDAFGQHLCCPQRLDREIPEYILMDAARKFYANLITPLSKLVLKKFDEVKELGLLERIQMIAPSHGQIWTDPMKIIEAYTGWATGMVDERVTVIYDTMHGSTRKMAHAIAEGAMSEGVDVRVYCLHEDDRSEIVKDILESGAIALGAPTIYDEPYPSVGDLLMYLRGLKFNRTLTRKALVFGSMGGNGGATGTMKELLAEAGFDVACEEEVYYVPTGDELDACFEAGRKLAAEIRR”, with “soluble”.
“MKAESSNESFIIGQRVHSLNDSRRVGTVKYVGDVEGYSGTWIGVDWDQDGDGKHNGSVNGVFYFNGRSQSSASFVRSQNLSRGITLLQALELRYRTISTKDEEDEMYVLSAGNRRVSIQLLGGDKIQDKLSRFEELTSASLSYLGVSSLGVSSDLGSILPNLKLLDLTGNLISDWEEIGALCEQLPALTTLNLSCNSLSSDIKSLPQLKNIRVLVLNNSGLSWTQVEILRRSLPGIEELHLMGNMISTITSTSSSDDQAFNSLRLLNLDDNCISDWSEVLKLSQLPCLEQLYLNKNKLSRIFQSVNGTESSEKGSDPFPSLSCLLLGANNIGDLASVDALNGFPQLVDIRLSENPISDPVRGGVPRFVLVARLTKVQVLNGSEVRAREKKDSEIRYVRMVMSKLNDKSGEIELLHPRFYELKKLHGIEDERASAENSGPKNIASGLISITLKCVGPSMGEKPHLTKKLPGSITVGKLKILSENFFKLKSIKPRLFLQEEGSPFPTALDDETATLLDVGICDGSTLLVDEES”: the “soluble on expression in E. coli” value is “soluble”.
For the sequence “MKAIISYETPLEQAHFTAKNDEKNMFYKENTEESVEGSLQYDVLDAVGEFKGQPGYIVCNNISVTDEGRPVFENRFKNRAGLIENEPGFQAIRVLRPLSNDTYVILTMWETEQNFKDWTESRSFENAHKKRPVQAEGQAPAHPHAEQQKSIFSRPSFVTTFDVLV”, the “soluble on expression in E. coli” value is reported as “not soluble”.
Then “MKAIIVKPPNAGVQVKDVDEKKLDSYGKIKIRTIYNGICGADREIVNGKLTLSTLPKGKDFLVLGHEAIGVVEESYHGFSQGDLVMPVNRRGCGICRNCLVGRPDFCETGEFGEAGIHKMDGFMREWWYDDPKYLVKIPKSIEDIGILAQPLADIEKSIEEILEVQKRVPVWTCDDGTLNCRKVLVVGTGPIGVLFTLLFRTYGLEVWMANRREPTEVEQTVIEETKTNYYNSSNGYDKLKDSVGKFDVIIDATGADVNILGNVIPLLGRNGVLGLFGFSTSGSVPLDYKTLQEIVHTNKTIIGLVNGQKPHFQQAVVHLASWKTLYPKAAKMLITKTVSINDEKELLKVLREKEHGEIKIRILWE”, with “soluble”; and “MKALKLYGVEDLRYEDNEKPVIESANDVIVKVRATGICGSDTSRYKKMGPYIKGMPFGHEFSGVVDAIGSDVTHVNVGDKVTGCPAIPCYQCEYCLKGEYARCEKLFVIGSYEPGSFAEYVKLPAQNVLKVPDNVDYIEAAMVEPSAVVAHGFYKSNIQPGMTVAVMGCGSIGLLAIQWARIFGAAHIIAIDIDAHKLDIATSLGAHQTINSKEENLEKFIENHYANQIDLAIESSGAKVTIGQILTLPKKGGEVVLLGIPYDDIEIDRVHFEKILRNELTVCGSWNCLSSNFPGKEWTATLHYMKTKDINVKPIISHFLPLEKGPETFDKLVNKKERFDKVMFTIY”, with “not soluble”; and “MKANRVNIKQAITEGETSLGIEFGSTRIKAVLIDSSFETIASGSYEWENLLEDGFWTYNLVDIITGLRTAYSEMKNEVERNYGITIRKIGSIGISAMMHGYMAFDKTGELLVPFRTWRNSTTGAAAKELTDQFQFNIPERWSIAHLYQAILNEEKHLPRIDYITTLAGYIHWLLTGNKAIGIGDASGMFPIDESTQNYNESMVKQFDELISNKGYPWKLKDILPKVYISGEQAGELTEIGAKILDQSKNLQPGIPICPPEGDAGTGMVATNSVRKRTGNISVGTSVFAMIVLEKELSKVYPEIDLVTTPNGSPVGMVHANNCSSDINAWLGLFREFFEAMGQKIETNKLFEVMLNKALEADSDGGGLLSYGYFSGENITGLEKGRPLFVRSPESRFNLANFMRTHLFTAFAALKIGMDILTKEEKIEIDSILAHGGLFKTPLVGQKIVAAAMNTPVSVMETAGEGGAWGMAILASYMMNKGQEESLEDFLDKKVFEEDAGQEIYPDQLDVEGFEAFIERYKKGLMIEQAAVDHLILEHHHHHH”, with “soluble”.
